# From paper PMC6923934, “The peptide transporter 1a of the zebrafish Danio rerio, an emerging model in nutrigenomics and nutrition research: molecular characterization, functional properties, and expression analysis” (Genes & Nutrition, 2019)
# B1: zebrafish PepT1b (Slc15a1b) (Danio rerio) (protein)
# chain: MADKEGHKQKKERASCFGYPVSIFFIVVNEFCERFSYYGMKAVLVLYFKYFIGWDDDLSTTIYHTFVALCYLTPIMGAIIADSWLGKFKTIVYLSIVYTIGQVIMAISAIHDITDANRDGKPDNKTLHISLSMLGLILIALGTGGIKPCVAAFGGDQFEDHQEKQRSTFFSIFYLSINAGSLLSTLITPILRSQECGIYAKQSCYPLAFGVPAALMVVALIVFVIGHKMYIMESPKGNILLQVINCIGFALNNRFRHRGKQYPKREHWMDWAEEKYDKLLIAQVKMVVKVLFLYIPLPMFWALFDQQGSRWTIQATTMDGNFGGFVIQPDQMQIVNPILIVIMVPIMDSAIYPLIKLCRINFTPLRKMTVGMVLAALAFVAAALLQLQIDETMPKFPSTSQTQLKFLNVESTSLPVVVEGQDQFMVPGFNASSEYLTLDKENVTISAGGVNDTAFLKTGTRHTVLMNAAGMRNTLDDLTEKPEQGLNAIRFVNGWENRLNVSVKSDNVHADPLDASVYLLVPHGKVNFTIFDGGDGKCHYIMQLGFGSTYTVLIPSTFAFGQTCSESFEAVQDMEPNRIHMAWQVIQYFLLTCGEVVYSVTGLDFSYSQAPSNMKSVLQAGWLLTVAVGNIIVLIVAEAGSLPDQWAEYLLFASLLVAVSIIFAIMAYFYTYIDPNEIEAKFKELEPEDKKRKEMQMTAKDNMAYVHNENTNIKQTKI
# notes: cRNA-expressed in Xenopus laevis oocytes; construct not described here (previously cloned zebrafish PepT1)
# B2: zebrafish PepT1a (Slc15a1a) (Danio rerio) (protein)
# chain: MPDSKMDETKKKKKKTAECCGYPISIFFIVVNEFCERFSYYGMRAVLVLYFRYFLLWDDDLATSIYHAFVALCYLTPILGAIIADSWLGKFKTIIYLSIVYAVGQVVMAVSTIHDITDANRDGTPDNFTLHIALSMLGLVLIALGTGGIKPCVAAFGGDQFQEHQSRQLNTFFSVFYLCINAGSLLSTLITPVLRAQECGIHTQQQCYPLAFGVPAALMVVSLVVFIAGSGMYTKTAPEGNIMGSVCKCIWFALNNRFRHRSDIYPKREHWMDWAEEKYDKLLIAQIKMVLKVLFLYIPLPMFWTLFDQKGSRWTLQATTMTGDFGGFVLQPDQMQTVNPILILTLVPIMDRIIFPLIKKCGLNFSPLKRMTVGMLFAATAFIAAALVQMEIDKTLPNFPSSSESQLKVVNMHSESLIVTVPSQEPLLIGSFESSPDYITFDQQDIRLAFNTTPEINKDLSLIKGSRQTLIIPSEPAEMYLKEDIKSKPKEGKNAVRFVNGWTAYLNITNLESSLQPSETSNYTLVSQGMRKFTLTDGIQSCEFSRKFGFGSSYTFLIPSDLFSTDCESIKEIEDMQPNSVHMALQIPQYFLITTGEVMFSVTGLQFSYSQAPKNMKSVLQAGWLCTNAVGNIIVLIVAELGKLPKQWAEYVLFASLLVAVSIIFSIMAYFYTYIDPAEIEAEILKQQETDPDKKKKKETLEMEEKENEQEIKQTKI
# notes: full-length cDNA cloned from zebrafish intestine, 717 residues, pSPORT1, cRNA in Xenopus laevis oocytes; untagged
# Legend:
# [1] = substrate: NCC(=O)N[C@@H](CCC(N)=O)C(=O)O; experiment: two-electrode voltage clamp, transport current in Xenopus oocytes; assay type: cell-based, Danio rerio; conditions: pH 6.5, -60 mV, NaCl buffer, proton-coupled
# Source text: two-electrode voltage clamp, transport current in Xenopus oocytes on zebrafish PepT1b (Slc15a1b)
# [2] = substrate: NCC(=O)N[C@@H](CCC(N)=O)C(=O)O; experiment: as above; assay type: cell-based, Danio rerio; conditions: pH 6.5, -60 mV, NaCl buffer, proton-coupled; remark: listed apart in the source
# Source text: two-electrode voltage clamp, transport current in Xenopus oocytes on zebrafish PepT1a (Slc15a1a)
Protein,K0.5 [1] [mmol/L],K0.5 [2] [mmol/L]
B1,0.13 ± 0.02,
B2,,0.24 ± 0.07
